Test: yeast display, Sf9 membrane polyspecificity reagent, FACS + sequencing; frameworks hold sequencing errors
Outline: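 Galactose-induced (36–48 hours) yeast carrying a synthetic nanobody display library were exposed to 10% biotinylated, detergent-solubilized Sf9 membrane reagent at 4 °C for 1 hour. FACS followed streptavidin microbead enrichment, using low and high (top ~1%) gates for expression (anti-HA) and reagent binding (streptavidin). Colony PCR, MiSeq 2 × 250 sequencing and CDR-length filtering followed. Labels for polyreactivity reflect the gate of origin.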

Row | Sequence | polyreactivity (PSR sort gate)
1 | QVQLVESGGGLLQAGGSLRLSCAASGRTLWIYAMGWYRQAPGKERELVASITTRGGSTYYADSVKGRFTISRDNAKNTVYLQMNSLKPEDTAVYYCARVSGARYTSYDYWGQGTQVTVSS | high polyreactivity
2 | QVQLVESGGGLLQAGGSLRLSCAASGSIFNKYAMGWYRQATGKEREFVAAITQGGGRTYYADSEKVRFTISRDNAKNTDYLQMNILKPEDTAVYYCNYNFNYPYYRYGYWGQGTQVTVSS | high polyreactivity
3 | QVQLVESGGGLLQAGGSLRLSCAASGSIFNYSAMGWYRQAPGTERELVATISSGGNTKYADSVKGRFTISRDNAKNTVYLQMNSLKPEDTAVYYCAARWQHSGYRDRYWYDYWGQGTQVTVSS | low polyreactivity
4 | QVQLVESGGGLLQAGGSLRLSCAASGSIFQYNAMGWYRQAPGKERELVAAINGGGSTYYADSVKGRFTISRDNAKNTVYLQMNSLKPEDTAVYYCAADGGAYSYRGPGKFGIEDSWGQGTQVTVSS | low polyreactivity
5 | QVQLVESGGGLLQAGGSLRLSCAASGSIFRRNAMGWYRQAPGTERELVACISGGGSTYYADSVKGRFTKSRDNAKNNVYLQLNSLNPEDTAVYYCATDKHYRWAVFDYWGQGTQVTVSS | low polyreactivity
6 | QVQLVESGGGLLQAGGSLRLSCAASGSIFSRYAMGWYRQAPGKERELVAAISKSGTRTYYADSVKGRFTISRDNAKNTVYLQMNSLKPEDTAVYYCNADSEISWYYPYEYWGQGTQVTVSS | high polyreactivity
7 | QVQLVESGGGLLQAGGSLRLSCAASGSTFPPYAMGWYRQAPGKERELVAAIDWSDGTTYYADSVKGRFTISRDNAKNTVYLQMNSLKPEDTAVYYCAASLSQSEYDYWGQGTQVTVSS | low polyreactivity
8 | QVQLVESGGGLLQAGGSLRLSCAASGSTFRIYAMGWYRQAPGKERELVAAIRRRGASTYYADSVKGRFTISRDNAKNTVYLQMNSLKQEDTAVYYCAASYLWDRVPGRGIHDYWGQGTQVTVSS | high polyreactivity
9 | QVQLVESGGGLLQAGGSLRLSCAASGSTISRYAMGWYRQAPGKERELVAAIRRNGDGTYYADSVKGRFTISRDNAKNTVYVQMNSLKPEDTAVYYCAARRFIPRFNYWGQGTQVTVSS | high polyreactivity
10 | QVQLVESGGGLLQAGGSLRLSCAASGTIFKYYAMGWYRQAPGKERELVAAISRSGSNTYYADSVKGRFRISRDNAKNTVYLQMNTLKPEDTAVYYFAARARRYIYTFDSWGQGTQVTVSS | high polyreactivity
11 | QVQLVESGGGLLQAGGSLRLSCAASRSTFFWYAMGWYRQAPGKERELVAANSKTGGSTYYADSVKGRFTISRDNAKNTVYLQMNSLKPEDTAVYYCARDYSWYYYGSQLFAHDYWGQGTQVTVSS | low polyreactivity
12 | QVQLVESGGGLLQAGGSLRLSCAASVRIFYGYAMGWYRPAPGKERELVAAIDSVGDTYYADSVKGRFTISRDNAKNTVYLQMNSLNPEDTAVYYCAADRTGGIVLSPTDEMDYWGQGTQVTVSS | low polyreactivity
13 | QVQLVESGGGLLQAGGSLRLSCAASVRIFYGYAMGWYRQAPGKERELVAAIDSVGDKYYADSVKGRFTISRDNAKNTVYLQMNSLNPEDTAVYSCAADRTGRIVLSPTDEMDYWGQGTQVSVSS | low polyreactivity
14 | QVQLVESGGGLLQAGGSLRLSCADSGSTFLYKAMGCYIQAPGKEREFVAAISGSGGTTYYADSVKGRFTISRDNAKNTVYLQMNSLKPEDTAVYYCAVSQSWYWYYASDYWGQGTQVTVSS | low polyreactivity
15 | QVQLVESGGGLLQAGGSLRLSCASSGRTFLVNAMGWYRQAPGKERELVAVITRVGSTNYADSVKGRFTISRDNAKNTVYLQMYSLKPEDTAVYYCAKQFSPYRSYGPVVRYDYWGQGTQLTVSS | low polyreactivity
16 | QVQLVESGGGLLQAGGSLRLSCDASGRIFGPNARGWYRQAPGKERELVDSISYSGGYTYYADSVKGRFTISRDNAKITFYLQMLSLIPVDTAVYYCAKGGYWSGYNYWGHGTQVTVSS | low polyreactivity
17 | QVQLVESGGGLLQAGGSLRLSSAASGFIFTKYNMGWYRQAPGKERELVDAIDTGGNTYADSVKGRFTISRDNAKNTVYLQMNSLKPEDTAVYYCSVDGGEFSSYGYWGQGTQVTVSS | low polyreactivity
18 | QVQLVESGGGLLQAGGSLRLSSAASGGTFPKYTKGWYRPAPGKEWELVAAITSRGGTYYADSVKGRFTISRDNAKNSVYLQMNSLKPEDTAVYYCAAEYSYSSYLWYDYWGQGTQVTVSS | high polyreactivity
19 | QVQLVESGGGLLQAGGSLRLSSAASGRTFPRYAMGWYRQAPGKERELVAAISVRAGITYYADSVKGRFTISRDNAKNTVYLQMNSLKPEDTAVYYCAKDHWTTSYDEGDYWGQGTQVTVSS | low polyreactivity
20 | QVQLVESGGGLLQAGGSLSLSCAASGGTFRYYTMGWYRQAPGKERELVASISGGGRTYYADSVKGRFTISRDNAKNTVYLQMNSLKPEDTAVYYCATYTRTFGYWGYGYWGQGTQVTVSS | high polyreactivity
21 | QVQLVESGGGLLQAGGSLSLSCAASGLILANYAMGWYRQAPGKERELVAAISSSGGSTYYADSVKGRFTISRDNAKNTVYLQMNSLKPEDTAVYYCAAYPLYRRRWTGDYWGQGTQVTVSS | high polyreactivity
22 | QVQLVESGGGLLQAGGSLSLSCAASGSIFVTNAMGWYRQAPGKERELVAAISVSGGSTYYADSVKGRFTISRDNAKYTVYLQMNSLKPEDTAVYYCNTVRSPPGHDYWGQGTQVTLSS | low polyreactivity
